Data on one substance can be found in US20170101458A1.

Test [1] has as its target hLDLR-K809R\C818A (human) (UniProt P01130). Briefly: cell-based or functional assay.
Test [2] concerns the target wild type human low density lipoprotein receptor (hLDLR), isoform 1 (human) (UniProt P01130). Briefly: cell-based or functional assay.

Turning to “human inducible degrader of LDLR (hIDOL) (from UniProt Q8WY64 1-445)”, the percent LDL positive HEK293 cells, hLDLR-K809R\C818A co-transfected with hIDOL in test [1] was 14 % of cells. In addition, in test [2], the percent LDL positive HEK293 cells, hLDLR co-transfected with hIDOL is 2 % of cells.
